Measured values: paper PMC11764342, “A Novel Nitrite Reductase from Acinetobacter haemolyticus for Efficient Degradation of Nitrite” (Biomolecules, 2025)

Substrate: O=NO
Assay: purified protein
Format: biochemical, Acinetobacter haemolyticus
Conditions: dithionite-reduced methyl viologen as electron donor, 30 °C, optimum pH (printed as 7.5 in abstract, 7 in results; assay PBS pH 7.0), NaNO2 0.51-2.17 mmol/L

B1: AhNiR (Acinetobacter haemolyticus CIP 64.3 = MTCC 9819) (protein)
chain: MYLYTDFDQQLINQRVAQFRDQTERYLAGKLTEDEYRPLRLQNGLYVQRYAPMLRIAVPYGLMNTKQLRKIAEIATEYDRGYAHVSTRQNIQLNWPALEDVPDILEELATVQMHAVQTSGNCIRNTTTDQFAGVVAGEIADPRPTCELIRQWSTFHPEFAFLPRKFKIAVSALAETDRAATAFHDIGVYIVRNEAGEIGYKIMAGGGLGRTPIIGSVIRDFLPREDLIAYLEATLRVYNLHGRRDNKYKARIKILVKALTPEVFAQKVEAEFEHTREALKIQPEILKKLDEEFTPFDYQDLEDQDFTALFAEYPKFKQWFNVNTNAHKVKGYRIVTISLKRAGIAPGDMTSEEMNLIADLADKYTFGEFRTTHEQNISLVDVPQKDLFELWQTLEQNDMARAHIGFITDIICCPGGDFCSLANAKSIPISEAITRRFEDLDTIYNLGELDLNISGCMNACGHHHVGNIGILGVDKKGAEFYQITLGGNADHDASIGDILGPSFAADAVPDVIEEILNTYLDLRTEGERFIDTYRRVGIQPFKERAYA
notes: whole gene in pET28a (BamHI/XhoI), N-terminal His tag, E. coli BL21(DE3), Ni-NTA; predicted 61929 Da
  Km: 1530 µM
